The values that follow are results of earlier work, collected in PMC9880166.

Like-named read-outs stand apart in the source and are kept apart here.

Series [1] concerns the target prolactin receptor (Homo sapiens) (UniProt P16471).
The target is the same in series [2]. The experiment in a line: SPR.

Sequence of UniProt P16471 (P16471 25-234): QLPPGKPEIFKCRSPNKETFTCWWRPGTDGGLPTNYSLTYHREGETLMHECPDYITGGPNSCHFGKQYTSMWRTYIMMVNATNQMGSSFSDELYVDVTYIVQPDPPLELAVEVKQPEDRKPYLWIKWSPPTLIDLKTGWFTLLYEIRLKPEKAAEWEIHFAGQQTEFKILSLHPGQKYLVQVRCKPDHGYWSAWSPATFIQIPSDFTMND
Sequence of prolactin (P01236 29-227): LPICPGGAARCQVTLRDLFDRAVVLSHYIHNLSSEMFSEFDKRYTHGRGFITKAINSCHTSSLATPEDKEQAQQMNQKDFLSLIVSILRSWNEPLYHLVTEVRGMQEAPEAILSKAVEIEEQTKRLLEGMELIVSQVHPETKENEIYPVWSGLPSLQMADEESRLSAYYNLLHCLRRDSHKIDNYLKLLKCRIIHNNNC

In the case of prolactin (from UniProt P01236), the Kd is 29.9 nM in series [1] and 23 nM in series [2].

As a reminder, the Kd is the free concentration of one partner at which half of the binding sites on the other are occupied at equilibrium, for simple one-to-one binding.
